The text below walks through data of paper PMC10853763.

This data set concerns TifA RB69 (phage RB69). As to the kind of experiment: fluorescence polarization. The conditions noted are these: FP: 50 mM Tris-HCl pH 7.5, 150 mM NaCl, 1 mM DTT, 5% glycerol, 0.1 mg/ml BSA, 5 nM nucleic acid, 30 min at 37 C, SEC: 20 mM Tris-HCl pH 8.5, 50 mM NaCl. For orientation: Fluorescence polarisation rises when a labelled molecule tumbles more slowly, as on binding a larger partner.
The substance artJ RNA 45 nt came in with a Kd of 360 nM. The result for artJ RNA 15 nt reads 2300 nM. Consider artJ RNA 30 nt, for which the Kd worked out at 850 nM.

Broadly, the Kd is the concentration at which binding is half-saturated. A high value points to weaker binding.
